Measured values as given in article PMC11746154 (2023).

B1: Gal4AD-Rec104 [S. cerevisiae] / LexA-Rec102 [S. cerevisiae] (parent complex)
chain 1: MSIEEEDTNKITCTQDFLHQYFVTERVSIQFGLNNKTVKRINKDEFDKAVNCIMSWTNYPKPGLKRTASTYLLSNSFKKSATVSLPFILGDPVCMPKRVESNNNDTCLLYSDTLYDDPLIQRNDQAGDEIEDEFSFTLLRSEVNEIRPISSSSTAQILQSDYSALMYERQASNGSIFQFSSP
chain 2: MARDITFLTVFLESCGAVNNDEAGKLLSAWTSTVRIEGPESTDSNSLYIPLLPPGMLKIKLNFKMNDRLVTEEQELFTKLREIVGSSIRFWEEQLFYQVQDVSTIENHVILSLKCTILTDAQISTFISKPRELHTHAKGYPEIYYLSELSTTVNFFSKEGNYVEISQVIPHFNEYFSSLIVSQLEFEYPMVFSMISRLRLKWQQSSLAPISYALTSNSVLLPIMLNMIAQDKSSTTAYQILCRRRGPPIQNFQIFSLPAVTYNK

Variants of: B1
Assay: Y2H β-galactosidase assay; parent: 0.97; read off a plot

Point of comparison: chain 1 Y21A, response ~1.1 normalized β-gal units. Against it:
- chain 1 I53A — the same, ~1.1 normalized β-gal units
- chain 1 L18A — lower, ~0.75 normalized β-gal units
- chain 1 F17A — lower, ~0.8 normalized β-gal units
- chain 1 K10A — lower, ~0.83 normalized β-gal units
- chain 1 I11A — lower, ~0.93 normalized β-gal units
- chain 1 L33A — lower, ~0.87 normalized β-gal units
- chain 1 T12A — lower, ~0.75 normalized β-gal units
- chain 1 F31A — higher, ~1.6 normalized β-gal units
- chain 1 V50A — higher, ~1.2 normalized β-gal units

Variants of: B1
Assay: as above
Remark: another data set of the same source

Point of comparison: chain 2 L8A, response ~1.4 normalized β-gal units. Against it:
- chain 2 F11A — lower, ~0.9 normalized β-gal units
- chain 2 L179A — lower, ~0.1 normalized β-gal units
- chain 2 Q183A — lower, ~0.01 normalized β-gal units
- chain 2 S182A — lower, ~0.62 normalized β-gal units
- chain 2 V10A — lower, ~0.6 normalized β-gal units
- chain 2 F156A — higher, ~1.5 normalized β-gal units
